In patent US11732029B2, “Methods and compositions for the treatment of wounds” (The University of Chicago, priority 2017, dated 2023):
Where two headings read alike, the source gives them in different places.

How the values were obtained:
[1] = target: T1, PlGF-2 (Homo sapiens, UniProt P49763); test: GF binding to recombinant laminin LG domain protein and synthesized laminin HBD peptides (ELISA); design: All growth factors (GFs) and chemokines were purchased in their mature forms; purchased PeproTech; host or cells: Escherichia coli; conditions: plate coated with LG domain protein or peptide, 1 μg/mL GF, vs BSA-coated wells
T1 sequence (P49763 19-170 isoform P49763-3 limits assumed): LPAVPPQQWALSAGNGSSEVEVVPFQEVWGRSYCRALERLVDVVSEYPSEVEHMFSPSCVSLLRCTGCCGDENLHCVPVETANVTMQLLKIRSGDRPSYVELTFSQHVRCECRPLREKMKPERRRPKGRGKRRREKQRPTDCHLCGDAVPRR
Protocol: (§1) ELISA tests were performed as described above. In brief, ELISA plates were coated with 1 μg/mL of laminin alpha 3 LG domain recombinant protein, laminin alpha 4 LG domain recombinant protein (R&D systems), laminin alpha 5 LG domain recombinant protein (LD BioPharma), or laminin peptide (sequences are described in Table 1, chemically synthesized by Genscript) in PBS for 2 hrs at 37° C. 1 μg/mL of BSA served as non-binding protein control. After blocking with 2% BSA PBS-0.05% Tween 20 (PBS-T) solution, 1 μg/mL of the recombinant human proteins (VEGF-A121, VEGF-A165, PlGF-1, PlGF-2, PDGF-BB or FGF-2) or 10 μg/mL of biotinylated heparin (Sigma-Aldrich) were added. Bound GF was detected with biotinylated antibodies for human VEGF, PlGF, PDGF-BB, or FGF-2 (R&D Systems). The antibodies were detected by streptavidin-HRP (R&D Systems).

[2] = target: T2, FGF-2 (Homo sapiens, UniProt P09038); test: as above; design: All growth factors (GFs) and chemokines were purchased in their mature forms; purchased PeproTech; host or cells: Escherichia coli; conditions: plate coated with LG domain protein or peptide, 1 μg/mL GF, vs BSA-coated wells
T2 sequence (P09038 143-288): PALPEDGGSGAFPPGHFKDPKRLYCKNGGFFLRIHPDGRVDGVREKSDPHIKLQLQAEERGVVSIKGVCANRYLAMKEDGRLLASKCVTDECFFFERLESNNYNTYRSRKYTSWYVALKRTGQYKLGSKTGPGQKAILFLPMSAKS
Protocol: as §1

[3] = system: syndecan-1, syndecan-2, syndecan-3, syndecan-4; test: Recombinant syndecan binding to synthesized laminin HBD peptides (ELISA); design: species or system human; key to Interaction with Syndecans: ++ indicates high affinities; + indicates medium/low affinities
Protocol: ELISA tests were performed as described above. In brief, ELISA plates were coated with 1 μg/mL laminin peptide (sequences are described in Table 1, chemically synthesized by Genscript) in PBS for 2 hrs at 37° C. 1 μg/mL of BSA served as non-binding protein control. After blocking with 2% BSA PBS-T solution, 1 μg/mL of the recombinant human syndecan-1, syndecan-2, syndecan-3, syndecan-4 (all syndecan proteins are histidine-tagged; SinoBiological) were added. Bound GF was detected with anti-histidine tag antibody (1:1000 dilution, BioLegend).

[4] = system: GFs; test: GF binding to synthesized laminin peptides (ELISA), all tested GFs together; design: species or system human; key to Interaction with GFs: ++ indicates high affinities; + indicates medium/low affinities; conditions: summary Table 2
Protocol: as §1

[5] = system: HUVEC cells; test: Migration assay (transwell); assay type: cell-based, human; conditions: 6 hr, 30 ng/mL VEGF-A165 with or without 0.1 μM peptide
Protocol: A migration assay was performed as described previously^3. A QCM 24-Well Colorimetric Cell Migration Assay kit was used to perform migration assay. Both sides of inserts were coated with 0.1 μM of bovine collagen I (C4243, Sigma-Aldrich) for 1 hr at 37° C. Then, the inserts were washed with water, dried in a laminar flow cabinet and disposed on 24-well cell culture plate covers. Solutions containing 30 ng/mL of VEGF-A165 preincubated with or without 0.1 μM of α33043-3067 peptide in medium (MCDB-131, 0.05% BSA) were added to the bottom side of the transwell (500 μL/well). Directly thereafter, HUVEC cells in medium containing 0.05% BSA (300 μL/transwell, 4×10^4 cells/transwell) were added to the transwell upper parts. After 6 hr, migrated cells were stained and absorbance at 560 nm was measured according to the manufacturer's instructions.

[6] = system: HUVEC; test: Cell adhesion assay, HUVEC on laminin peptide coated plates; assay type: cell-based, human; design: key to Cell adhesion HUVECs: ++ indicates high affinities; + indicates medium/low affinities
Protocol: (§2) 96-well plates (non-tissue culture treated, Greiner Bio-one) were pre-coated with 1 μg/mL with laminin HBD peptides in PBS for 2 hrs at 37° C., followed by blocking with 2% BSA PBS for 1 h at RT. Cell adhesion assays were performed using human lung fibroblasts (Lonza) in FGM-2 medium (Lonza) or human umbilical vein endothelial cells (HUVEC; Lonza) in EGM-2 medium (Lonza) supplemented with 1% fetal bovine serum (FBS) and […] VEGF-A165, with or without 5 mM EDTA (Sigma-Aldrich). Cells were plated at 3000 cells/well on laminin peptide pre-coated plates and incubated for 30 min at 37° C., 5% CO2. Then, the medium was removed, and wells were quickly washed three times with PBS. Cell numbers were quantified using a CyQUANT assay, according to the manufacturer's instructions (Invitrogen). All cell lines were checked for mycoplasma contamination and used in passages from 5 to 8.

[7] = target: T3, PDGF-BB (Homo sapiens, UniProt P01127); test: GF binding to recombinant laminin LG domain protein and synthesized laminin HBD peptides (ELISA); conditions: plate coated with LG domain protein or peptide, 1 μg/mL GF, vs BSA-coated wells
T3 construct: All growth factors (GFs) and chemokines were purchased in their mature forms; purchased PeproTech; host or cells: Escherichia coli
Protocol: as §1

[8] = target: T4, VEGF-A165 (Homo sapiens, UniProt P15692); test: as above; conditions: plate coated with LG domain protein or peptide, 1 μg/mL GF, vs BSA-coated wells
T4 construct: All growth factors (GFs) and chemokines were purchased in their mature forms; purchased PeproTech; host or cells: Escherichia coli
T4 sequence (P15692 27-191 isoform P15692-4 limits assumed): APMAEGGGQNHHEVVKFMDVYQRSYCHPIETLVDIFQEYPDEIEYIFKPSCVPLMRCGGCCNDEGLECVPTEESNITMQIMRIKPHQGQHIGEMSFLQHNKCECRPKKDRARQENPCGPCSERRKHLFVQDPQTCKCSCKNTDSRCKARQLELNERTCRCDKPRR
Protocol: as §1

[9] = Heparin binding to synthesized laminin peptides (ELISA); design: key to Interaction with Heparin: ++ indicates high affinities; + indicates medium/low affinities
Protocol: as §1

[10] = system: human lung fibroblasts; test: Cell adhesion assay, fibroblasts on laminin peptide coated plates; assay type: cell-based; design: key to Cell adhesion Fibroblasts: ++ indicates high affinities; + indicates medium/low affinities
Protocol: as §2

[11] = target: T4, VEGF-A165; test: vWF binding to recombinant VEGF-A isoforms (ELISA); conditions: plate coated with 50 nM vWF domains, 1 μg/mL VEGF-A, vs BSA
Protocol: (§3) ELISA was performed as previously reported1. In brief, ELISA plates (med binding: Greiner Bio-One) were coated with 50 nM BSA (GE Healthcare), pro-peptide containing recombinant vWF (Sino Biological), plasma-derived vWF (EMD Millipore), recombinant human vWF A1 domain (U-Protein Express), recombinant human vWF A2 domain (R & D systems), recombinant human vWF A3 domain (U-Protein Express), vWF A1 HBD peptide or scrambled/mutated HBD peptide (all peptides were synthesized by Genscript). After blocking with 2% BSA solution containing PBS-T, 1 μg/mL of recombinant human VEGF-A121 (PeproTech), recombinant human VEGF-A145 (R & D Systems), or recombinant human VEGF-A165 (PeproTech) was added. Bound VEGF-A was detected with 1 μg/mL of mouse anti-human VEGF-A antibody (clone: 26503, R & D systems). After 60 min of incubation, horseradish peroxidase (HRP) conjugated goat anti-mouse antibody (1:2000 dilution, Dako) was added and incubated for another 60 min. Color development and the absorbance measurement were done as described above.

[12] = target: T5, VEGF-A145 (Homo sapiens, UniProt P15692); test: vWF binding to recombinant VEGF-A isoforms (ELISA); conditions: plate coated with 50 nM vWF domains, 1 μg/mL VEGF-A, vs BSA
T5 construct: All GFs and chemokines were purchased in their mature forms; purchased R & D Systems
T5 sequence (P15692 27-171 isoform P15692-6 limits assumed): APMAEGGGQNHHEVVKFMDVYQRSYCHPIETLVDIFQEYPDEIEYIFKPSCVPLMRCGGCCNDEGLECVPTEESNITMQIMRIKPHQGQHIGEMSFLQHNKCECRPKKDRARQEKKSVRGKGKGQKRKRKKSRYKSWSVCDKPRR
Protocol: as §3

[13] = target: T3, PDGF-BB; test: Recombinant GF binding to the vWF recombinant protein and A1 HBD peptide (ELISA); conditions: plate coated with vWF protein, A1 domain or HBD peptide, 1 μg/mL GF
Protocol: (§4) ELISA tests were performed as described above. In brief, ELISA plates were coated with 1 μg/mL of FL-vWF (WT or R1341Q), 1 μg/mL of vWF A1 recombinant protein (U-Protein Express) or 1 μg/mL of vWF A1 HBD peptide (sequence […], (SEQ ID NO:50) chemically synthesized by Genscript) at 37° C. overnight. After blocking with 2% BSA solution containing PBS-T, 1 μg/mL of the recombinant human proteins VEGF-A121, VEGF-A165, PlGF-1, PlGF-2, PDGF-BB, FGF-2, CXCL-12α and CXCL-12γ were added. 1 μg/mL of BSA served as non-binding protein control. Bound GF or chemokine was detected with biotinylated antibodies for human VEGF-A, PlGF, PDGF-BB, FGF-2, or CXCL-12 (R & D Systems). The antibodies were detected by streptavidin-HRP (R & D Systems). Color development and the absorbance measurement were done as described above.

[14] = target: T6, CXCL-12γ (Homo sapiens, UniProt P48061); test: as above; conditions: plate coated with vWF protein, A1 domain or HBD peptide, 1 μg/mL GF
T6 construct: All GFs and chemokines were purchased in their mature forms; purchased R & D Systems; host or cells: Escherichia coli
T6 sequence (P48061 22-119 isoform P48061-3): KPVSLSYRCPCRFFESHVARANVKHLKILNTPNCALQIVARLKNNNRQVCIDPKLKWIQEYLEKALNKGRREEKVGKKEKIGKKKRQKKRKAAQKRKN
Protocol: as §4

[15] = target: T4, VEGF-A165; test: as above; conditions: plate coated with vWF protein, A1 domain or HBD peptide, 1 μg/mL GF
Protocol: as §4

[16] = target: T1, PlGF-2; test: as above; design: All growth factors (GFs) and chemokines were purchased in their mature forms; purchased PeproTech; host or cells: Escherichia coli; conditions: plate coated with vWF protein, A1 domain or HBD peptide, 1 μg/mL GF
Protocol: as §4

[17] = target: T2, FGF-2; test: as above; design: All growth factors (GFs) and chemokines were purchased in their mature forms; purchased PeproTech; host or cells: Escherichia coli; conditions: plate coated with vWF protein, A1 domain or HBD peptide, 1 μg/mL GF
Protocol: as §4

[18] = Ishihara et al. 2018; Martino et al. 2013; cited from earlier work
[19] = system: wound healing in the db/db mouse; conditions: cited from earlier work
[20] = peptide-coated plates, 30 min at 37° C., without EDTA

RLVFALGTDGKKLRIKSKEKCNDGK [α33043-3067, laminin α3 chain LG4-derived peptide, 25 aa]
binding to PlGF-2 [1]: bound
binding to FGF-2 [2]: bound
binding to recombinant syndecans (syndecan 1-4) ([3]; ELISA, peptide-coated plate, 1 μg/mL syndecan): significant binding
Interaction with Syndecans ([3]; summary Table 2): ++
Interaction with GFs [4]: ++
degree of migration of HUVEC cells [5]: did not increase the degree of cell migration
HUVEC attachment in the presence of EDTA ([6]; peptide-coated plates, 30 min, 5 mM EDTA): even in the presence of EDTA
HUVEC attachment [6, 20]: promoted HUVEC attachment
Cell adhesion HUVECs ([6]; summary Table 2): ++
binding to PDGF-BB [7]: bound
binding to VEGF-A165 [8]: bound
binding to heparin ([9]; ELISA, peptide-coated plate, 10 μg/mL biotinylated heparin): bound to heparin
Interaction with Heparin ([9]; summary Table 2): ++
fibroblast attachment [10, 20]: enhancement of fibroblast attachment
Cell adhesion Fibroblasts ([10]; summary Table 2): ++

recombinant A1 domain: recombinant human vWF A1 domain (U-Protein Express)
binding to VEGF-A165 [11]: bound
binding to VEGF-A145 [12]: bound
binding to PDGF-BB [13]: strong binding
binding to CXCL-12γ [14]: strong binding
binding to VEGF-A165 [15]: strong binding
binding to PlGF-2 [16]: strong binding
binding to FGF-2 [17]: strong binding

GCGGSLRPAPPPISGGGYRARPAKAAATQKKVERKAPDA [FgHBD]
binding to heparin [18]: bind to heparin

B1: PDGF-BB: platelet-derived growth factor-BB; Regranex in the clinic (protein)
chain: SLGSLTIAEPAMIAECKTRTEVFEISRRLIDRTNANFLVWPPCVEVQRCSGCCNNRNVQCRPTQVQLRPVQVRKIEIVRKKPIFKKATVTLEDHLACKCETVAAARPVT
wound healing in the db/db mouse ([19]; 10 μg per wound): did not significantly enhance wound healing

B2: VEGF-A165: vascular endothelial growth factor-A165, recombinant (PeproTech) (protein)
chain: T4 sequence (P15692 27-191 isoform P15692-4 limits assumed)
degree of migration of HUVEC cells [5]: increases the degree of migration
wound healing in the db/db mouse ([19]; 20 μg per wound applied topically for five consecutive days): promote wound healing

B3: LamLG4: laminin α-chain LG4 domain used as growth factor-binding domain (protein)
chain: SLNKPPFLMLLKGSTRFNKTKTFRINQLLQDTPVASPRSVKVWQDACSPLPKTQANHGALQFGDIPTSHLLFKLPQELLKPRSQFAVDMQTTSSRGLVFHTGTKNSFMALYLSKGRLVFALGTDGKKLRIKSKEKCNDGKWHTVVFGHDGEKGRLVVDGLRAREGSLPGNSTISIRAPVYLGSPPSGKPKSLPTNSFVGCLKNFQLDSKPLYTPSSSFGVSSCTG
binding to heparin [18]: bind to heparin
